From patent publication US20050100897A1, “NFAT transcription factors in tumor progression” (priority 2002, published 2005)

Experiments:
Format in all cases: cell-based, human
[1] = system: NFAT-5 transcriptional activity; test: NFAT-5-luc luciferase reporter assay in MDA-MB-435 β4+ (3A7) cells; settings: co-transfected with dominant negative NFAT-5 (GFP-ND5)
Protocol: FIGS. 4A-4D are graphs showing that NFAT-5 transcriptional activity is induced in an α6β4-dependent manner. FIG. 4A is a graph showing NFAT-5 transcriptional activity in control parental cells, β4 (3A7), and β4.ΔCYT (3C12) MDA-MB-435 transfectants that were transiently transfected with NFAT-5-luc. The cells were grown in complete media for twenty-four hours, trypsinized, incubated with anti-α6 (clone 135-13C) for 30 minutes, then plated onto secondary antibody-coated plates, either in the presence (+) or absence (−) of NIH 3T3 conditioned medium (CM), for twenty-four hours. As a positive control, cells were also stimulated with PMA (phorbol 12-myristate 13-acetate) and ionomycin (100 nM each) for twenty-four hours. Following stimulation, cells were lysed and NFAT-5 transcriptional activity was assayed. […] NFAT-5 transcriptional activity was measured as described above. […] NFAT-5 transcriptional activity was measured as described above. […]
Cells were transiently co-transfected with an NFAT luciferase reporter construct (NFAT-luc, 10 μg) and 1 μg pCS2-(n)β-gal using the Lipofectamine procedure (Life Technologies). Twenty-four hours after the transfection, luciferase and beta-galactosidase assays were performed using standard assays on total cell lysates and measured on a luminometer. […]

[2] = system: Clone A colon cancer cell line; test: Matrigel chemoinvasion assay, Clone A cells; settings: transient transfection
Protocol: (§1) Invasion assays were performed using standard methods (see Shaw et al., Cell 91:949-960, 1997) using Transwell chambers coated with Matrigel. Briefly, cells were co-transfected with the indicated NFAT constructs, 1 μg EGFP-N1 (Clontech) and 1 μg pCS2-(n)β-Gal, a •gal expression vector (Dave Turner, University of Michigan) using the Lipofectamine procedure (Life Technologies), and after twenty-four hours, the cells were resuspended in serum-free medium containing 0.1% bovine serum albumin (BSA) and added to each well. […] Cells that stained positive for β-galactosidase expression were counted, and the mean of triplicate assays for each experimental condition was used as % relative invasion.

[3] = system: MDA-MB-231 cells; test: Matrigel chemoinvasion assay, MDA-MB-231 cells; settings: transient transfection
Description: FIGS. 3A-3C show the role of NFAT-5 in mediating carcinoma invasion. FIG. 3A is a graph showing luciferase levels in MDA-MB-435 cells expressing vector alone, β4.ΔCYT (3C12), or wild-type β4^+ (3A7 clone) that were transiently transfected with an NFAT-5-luciferase reporter construct (NFAT-5-luc). Luciferase activity is shown as relative luciferase units. […] The lysates were resolved by SDS PAGE and immunoblotted with anti-NFAT-5 (α-NFAT-5, top panel) or anti-p85 (α-p85, bottom panel) The position of the 175 kDa and 90 kDa markers are indicated (left). […] The ability of the transfected cells to invade Matrigel was then assayed and the data are shown as the relative invasion of NFAT-5-transfected cells compared to vector alone-transfected cells (100%).
Invasion assays were performed using standard methods (see Shaw et al., Cell 91:949-960, 1997) using Transwell chambers coated with Matrigel. […] Cells that stained positive for β-galactosidase expression were counted, and the mean of triplicate assays for each experimental condition was used as % relative invasion. […]

[4] = system: MDA-MB-435 β4+-expressing cells (3A7); test: Matrigel chemoinvasion assay, MDA-MB-435 β4+ transfectants; settings: transient transfection; NIH 3T3 conditioned media as chemoattractant
Protocol: Following the transfection protocol, the ability of the transfected cells to invade Matrigel was assayed. The data are shown as the relative invasion of NFAT transfected cells compared to vector alone-transfected cells (100%). The data shown are mean values (±SEM) of 2 experiments performed in triplicate.
as §1

B1: ND5: dominant negative NFAT-5 mutant, amino acids 1-471 (SEQ ID NO:17) of NFAT5a; blocks dimerization of endogenous NFAT-5 (protein, listed as Homo sapiens)
chain: MGGACSSFTTSSSPTIYSTSVTDSKAMQVESCSSAVGVSNRGVSEKQLTSNTVQQHPSTPKRHTVLYISPPPEDLLDNSRMSCQDEGCGLESEQSCSMWMEDSPSNFSNMSTSSYNDNTEVPRKSRKRNPKQRPGVKRRDCEESNMDIFDADSAKAPHYVLSQLTTDNKGNSKAGNGTLENQKGTGVKKSPMLCGQYPVKSEGKELKIVVQPETQHRARYLTEGSRGSVKDRTQQGFPTVKLEGHNEPVVLQVFVGNDSGRVKPHGFYQACRVTGRNTTPCKEVDIEGTTVIEVGLDPSNNMTLAVDCVGILKLRNADVEARIGIAGSKKKSTRARLVFRVNIMRKDGSTLTLQTPSSPILCTQPAGVPEILKKSLHSCSVKGEEEVFLIGKNFLKGTKVIFQENVSDENSWKSEAEIDMELFHQNHLIVKVPPYHDQHITLPVSVGIYVVTNAGRSHDVQPFTYTPDPAA
[1]
  co-stimulated NFAT-5 transcriptional activity (α6β4 + conditioned media, or PMA/ionomycin): inhibited
[2]
  carcinoma invasion (relative invasion vs vector alone): significantly inhibited invasion
[3]
  carcinoma invasion (relative invasion vs vector alone): significantly inhibited invasion
[4]
  carcinoma invasion (relative invasion vs vector alone): significantly inhibited invasion
